Measured values reported in publication doi:10.1101/2023.11.20.565808 (bioRxiv, 2023).

Molecular target: GST-fused RACK1, WT (human, UniProt P63244 1-317)
Experiment: pull-down

binding result: binds
B1: His6-YTHDF2, WT (FL) (natural protein)
chain: MSASSLLEQRPKGQGNKVQNGSVHQKDGLNDDDFEPYLSPQARPNNAYTAMSDSYLPSYYSPSIGFSYSLGEAAWSTGGDTAMPYLTSYGQLSNGEPHFLPDAMFGQPGALGSTPFLGQHGFNFFPSGIDFSAWGNNSSQGQSTQSSGYSSNYAYAPSSLGGAMIDGQSAFANETLNKAPGMNTIDQGMAALKLGSTEVASNVPKVVGSAVGSGSITSNIVASNSLPPATIAPPKPASWADIASKPAKQQPKLKTKNGIAGSSLPPPPIKHNMDIGTWDNKGPVAKAPSQALVQNIGQPTQGSPQPVGQQANNSPPVAQASVGQQTQPLPPPPPQPAQLSVQQQAAQPTRWVAPRNRGSGFGHNGVDGNGVGQSQAGSGSTPSEPHPVLEKLRSINNYNPKDFDWNLKHGRVFIIKSYSEDDIHRSIKYNIWCSTEHGNKRLDAAYRSMNGKGPVYLLFSVNGSGHFCGVAEMKSAVDYNTCAGVWSQDKWKGRFDVRWIFVKDVPNSQLRHIRLENNENKPVTNSRDTQEVPLEKAKQVLKIIASYKHTTSIFDDFSHYEKRQEEEESVKKERQGRGK
